# Test results taken from publication PMC9482650, “Quantitative fragmentomics allow affinity mapping of interactomes” (Nature Communications, 2022).
# T1: APBA2_1, Q99767
# T1 sequence (Q99767 563-664, limits assumed, looked up): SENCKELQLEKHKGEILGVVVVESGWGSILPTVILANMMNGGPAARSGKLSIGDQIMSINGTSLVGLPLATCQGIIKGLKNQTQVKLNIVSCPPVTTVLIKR
# T2: TJP3_3, O95049
# T2 sequence (O95049 375-456, limits assumed, looked up): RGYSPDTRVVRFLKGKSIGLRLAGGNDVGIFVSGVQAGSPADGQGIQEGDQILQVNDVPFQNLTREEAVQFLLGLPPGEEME
# T3: NHERF3_3, Q5T2W1
# T3 sequence (Q5T2W1 238-333, limits assumed, looked up): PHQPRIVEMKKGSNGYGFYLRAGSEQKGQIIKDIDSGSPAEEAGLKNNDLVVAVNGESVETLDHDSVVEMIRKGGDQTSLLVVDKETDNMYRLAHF
# T4: PDZD7_3, Q9H5P4
# T4 sequence (Q9H5P4 857-944, limits assumed, looked up): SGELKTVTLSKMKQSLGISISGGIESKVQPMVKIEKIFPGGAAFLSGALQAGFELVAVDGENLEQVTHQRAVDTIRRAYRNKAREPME
# T5: HTRA3, P83110
# T5 sequence (P83110 354-453, limits assumed, looked up): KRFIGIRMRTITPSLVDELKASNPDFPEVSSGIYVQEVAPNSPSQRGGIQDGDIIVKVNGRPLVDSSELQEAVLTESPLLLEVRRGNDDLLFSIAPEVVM
# T6: DVL3, Q92997
# T6 sequence (Q92997 244-331, limits assumed, looked up): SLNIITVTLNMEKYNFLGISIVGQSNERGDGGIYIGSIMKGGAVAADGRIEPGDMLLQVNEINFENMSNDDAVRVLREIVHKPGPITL
# T7: SNTG1, Q9NSN8
# T7 sequence (Q9NSN8 52-150, limits assumed, looked up): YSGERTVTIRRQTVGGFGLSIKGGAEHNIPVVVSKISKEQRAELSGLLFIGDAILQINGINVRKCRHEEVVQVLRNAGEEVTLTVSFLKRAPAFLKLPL
# T8: SNTA1, Q13424
# T8 sequence (Q13424 82-180, limits assumed, looked up): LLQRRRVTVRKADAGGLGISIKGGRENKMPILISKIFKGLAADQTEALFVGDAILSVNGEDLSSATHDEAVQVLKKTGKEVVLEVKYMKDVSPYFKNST
# T9: DFNB31_2, Q9P202
# T9 sequence (Q9P202 274-371, limits assumed, looked up): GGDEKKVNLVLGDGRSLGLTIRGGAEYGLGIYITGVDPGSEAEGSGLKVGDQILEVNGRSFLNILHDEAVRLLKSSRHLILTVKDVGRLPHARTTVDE
# T10: APBA3_1, O96018
# T10 sequence (O96018 389-490, limits assumed, looked up): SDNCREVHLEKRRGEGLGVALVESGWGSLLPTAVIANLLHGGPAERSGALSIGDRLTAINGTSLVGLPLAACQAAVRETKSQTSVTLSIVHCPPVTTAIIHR
# T11: SIPA1L2, Q9P2F8
# T11 sequence (Q9P2F8 945-1036, limits assumed, looked up): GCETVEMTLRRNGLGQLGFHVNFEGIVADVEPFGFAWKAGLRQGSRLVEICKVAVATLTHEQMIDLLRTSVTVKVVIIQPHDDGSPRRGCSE
# T12: PARD3B_1, Q8TEW8
# T12 sequence (Q8TEW8 196-299, limits assumed, looked up): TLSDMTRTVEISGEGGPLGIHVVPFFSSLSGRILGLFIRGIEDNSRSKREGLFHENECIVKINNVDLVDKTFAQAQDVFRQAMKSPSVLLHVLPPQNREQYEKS
# B1: EFNB1, P52799 (peptide)
# chain: QSPANIYYKV
# B2: GHRHR, Q02643 (peptide)
# chain: SAAKVLTSMC
# B3: ADAM22, Q9P0K1 (peptide)
# chain: QSARLWETSI
# B4: GPRC6A, Q5T6X5 (peptide)
# chain: TLPRKRMSSI
# Target: T1, APBA2_1, Q99767
# Assay: holdup assay
# Parameters: key: below the threshold = too weak to quantify, mostly under pKd 3.1 to 4
# Details: plain residues with an end cap or a label only (N-terminal biotin on a linker: ado-ado)
row,Binder,pKd
1,B1,below the threshold
2,B2,below the threshold
3,B3,below the threshold
4,B4,below the threshold

# Target: T2, TJP3_3, O95049
# Assay: holdup assay
# Parameters: key: below the threshold = too weak to quantify, mostly under pKd 3.1 to 4
# Details: plain residues with an end cap or a label only (N-terminal biotin on a linker: ado-ado)
row,Binder,pKd
1,B1,below the threshold
2,B2,below the threshold
3,B3,below the threshold
4,B4,below the threshold

# Target: PARD3_3, Q8TEW0
# Sequence (Q8TEW0 582-685): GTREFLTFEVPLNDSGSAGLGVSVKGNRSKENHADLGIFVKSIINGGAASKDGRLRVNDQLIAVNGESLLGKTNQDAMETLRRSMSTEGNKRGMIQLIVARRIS
# Assay: holdup assay
# Parameters: key: below the threshold = too weak to quantify, mostly under pKd 3.1 to 4
# Details: plain residues with an end cap or a label only (N-terminal biotin on a linker: ado-ado)
row,Binder,pKd
1,B1,below the threshold
2,B2,below the threshold
3,B3,3.74
4,B4,below the threshold

# Target: T3, NHERF3_3, Q5T2W1
# Assay: holdup assay
# Parameters: key: below the threshold = too weak to quantify, mostly under pKd 3.1 to 4
# Details: plain residues with an end cap or a label only (N-terminal biotin on a linker: ado-ado)
row,Binder,pKd
1,B1,below the threshold
2,B2,below the threshold
3,B3,below the threshold
4,B4,below the threshold

# Target: T4, PDZD7_3, Q9H5P4
# Assay: holdup assay
# Parameters: key: below the threshold = too weak to quantify, mostly under pKd 3.1 to 4
# Details: plain residues with an end cap or a label only (N-terminal biotin on a linker: ado-ado)
row,Binder,pKd
1,B1,below the threshold
2,B2,4.7
3,B3,5.16
4,B4,below the threshold

# Target: T5, HTRA3, P83110
# Assay: holdup assay
# Parameters: key: below the threshold = too weak to quantify, mostly under pKd 3.1 to 4
# Details: plain residues with an end cap or a label only (N-terminal biotin on a linker: ado-ado)
row,Binder,pKd
1,B1,below the threshold
2,B2,4.24
3,B3,below the threshold
4,B4,below the threshold

# Target: SCRIB_3, Q14160
# Sequence (Q14160 999-1103): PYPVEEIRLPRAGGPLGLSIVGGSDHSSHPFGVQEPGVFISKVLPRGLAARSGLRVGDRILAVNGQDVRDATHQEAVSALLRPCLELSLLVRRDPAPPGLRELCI
# Assay: holdup assay
# Parameters: key: below the threshold = too weak to quantify, mostly under pKd 3.1 to 4
# Details: plain residues with an end cap or a label only (N-terminal biotin on a linker: ado-ado)
row,Binder,pKd
1,B1,below the threshold
2,B2,3.61
3,B3,5.32
4,B4,3.49

# Target: GRIP2_7, Q9C0E4
# Sequence (Q9C0E4 934-1023): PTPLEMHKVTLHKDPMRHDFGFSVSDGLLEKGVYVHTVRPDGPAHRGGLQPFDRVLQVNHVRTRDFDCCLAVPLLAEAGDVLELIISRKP
# Assay: holdup assay
# Parameters: key: below the threshold = too weak to quantify, mostly under pKd 3.1 to 4
# Details: plain residues with an end cap or a label only (N-terminal biotin on a linker: ado-ado)
row,Binder,pKd
1,B1,4.34
2,B2,below the threshold
3,B3,below the threshold
4,B4,below the threshold

# Target: GORASP1, Q9BQQ3
# Sequence (Q9BQQ3 1-208): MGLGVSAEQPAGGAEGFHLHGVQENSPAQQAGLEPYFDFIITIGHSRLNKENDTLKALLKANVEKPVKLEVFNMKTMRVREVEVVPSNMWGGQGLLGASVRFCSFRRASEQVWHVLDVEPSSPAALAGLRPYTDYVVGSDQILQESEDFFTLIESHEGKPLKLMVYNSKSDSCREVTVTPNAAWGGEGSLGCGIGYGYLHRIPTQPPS
# Assay: holdup assay
# Parameters: key: below the threshold = too weak to quantify, mostly under pKd 3.1 to 4
# Details: plain residues with an end cap or a label only (N-terminal biotin on a linker: ado-ado)
row,Binder,pKd
1,B1,4.85
2,B2,below the threshold
3,B3,below the threshold
4,B4,below the threshold

# Target: T6, DVL3, Q92997
# Assay: holdup assay
# Parameters: key: below the threshold = too weak to quantify, mostly under pKd 3.1 to 4
# Details: plain residues with an end cap or a label only (N-terminal biotin on a linker: ado-ado)
row,Binder,pKd
1,B1,below the threshold
2,B2,below the threshold
3,B3,below the threshold
4,B4,below the threshold

# Target: T7, SNTG1, Q9NSN8
# Assay: holdup assay
# Parameters: key: below the threshold = too weak to quantify, mostly under pKd 3.1 to 4
# Details: plain residues with an end cap or a label only (N-terminal biotin on a linker: ado-ado)
row,Binder,pKd
1,B1,below the threshold
2,B2,below the threshold
3,B3,4.82
4,B4,below the threshold

# Target: TJP2_1, Q9UDY2
# Sequence (Q9UDY2 24-128): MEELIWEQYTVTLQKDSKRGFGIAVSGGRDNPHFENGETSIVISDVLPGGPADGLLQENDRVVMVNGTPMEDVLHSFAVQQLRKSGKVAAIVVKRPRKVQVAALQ
# Assay: holdup assay
# Parameters: key: below the threshold = too weak to quantify, mostly under pKd 3.1 to 4
# Details: plain residues with an end cap or a label only (N-terminal biotin on a linker: ado-ado)
row,Binder,pKd
1,B1,below the threshold
2,B2,3.6
3,B3,below the threshold
4,B4,below the threshold

# Target: NHERF4_2, Q86UT5
# Sequence (Q86UT5 220-308): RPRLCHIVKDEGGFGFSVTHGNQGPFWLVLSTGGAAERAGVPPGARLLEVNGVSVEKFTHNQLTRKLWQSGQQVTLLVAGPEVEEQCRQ
# Assay: holdup assay
# Parameters: key: below the threshold = too weak to quantify, mostly under pKd 3.1 to 4
# Details: plain residues with an end cap or a label only (N-terminal biotin on a linker: ado-ado)
row,Binder,pKd
1,B1,below the threshold
2,B2,below the threshold
3,B3,below the threshold
4,B4,below the threshold

# Target: CASK, O14936
# Sequence (O14936 487-570): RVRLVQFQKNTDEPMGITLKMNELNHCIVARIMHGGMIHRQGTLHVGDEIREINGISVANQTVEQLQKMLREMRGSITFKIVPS
# Assay: holdup assay
# Parameters: key: below the threshold = too weak to quantify, mostly under pKd 3.1 to 4
# Details: plain residues with an end cap or a label only (N-terminal biotin on a linker: ado-ado)
row,Binder,pKd
1,B1,below the threshold
2,B2,below the threshold
3,B3,below the threshold
4,B4,below the threshold

# Target: T8, SNTA1, Q13424
# Assay: holdup assay
# Parameters: key: below the threshold = too weak to quantify, mostly under pKd 3.1 to 4
# Details: plain residues with an end cap or a label only (N-terminal biotin on a linker: ado-ado)
row,Binder,pKd
1,B1,below the threshold
2,B2,below the threshold
3,B3,4.49
4,B4,below the threshold

# Target: T9, DFNB31_2, Q9P202
# Assay: holdup assay
# Parameters: key: below the threshold = too weak to quantify, mostly under pKd 3.1 to 4
# Details: plain residues with an end cap or a label only (N-terminal biotin on a linker: ado-ado)
row,Binder,pKd
1,B1,below the threshold
2,B2,below the threshold
3,B3,3.57
4,B4,below the threshold

# Target: GRIP2_3, Q9C0E4
# Sequence (Q9C0E4 238-339): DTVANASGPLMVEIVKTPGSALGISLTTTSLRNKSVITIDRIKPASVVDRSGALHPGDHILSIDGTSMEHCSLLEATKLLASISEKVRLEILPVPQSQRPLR
# Assay: holdup assay
# Parameters: key: below the threshold = too weak to quantify, mostly under pKd 3.1 to 4
# Details: plain residues with an end cap or a label only (N-terminal biotin on a linker: ado-ado)
row,Binder,pKd
1,B1,below the threshold
2,B2,below the threshold
3,B3,below the threshold
4,B4,below the threshold

# Target: SCRIB_1, Q14160
# Sequence (Q14160 718-814): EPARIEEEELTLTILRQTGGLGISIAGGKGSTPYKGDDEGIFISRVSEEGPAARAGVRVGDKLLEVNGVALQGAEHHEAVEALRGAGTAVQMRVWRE
# Assay: holdup assay
# Parameters: key: below the threshold = too weak to quantify, mostly under pKd 3.1 to 4
# Details: plain residues with an end cap or a label only (N-terminal biotin on a linker: ado-ado)
row,Binder,pKd
1,B1,below the threshold
2,B2,4.58
3,B3,5.23
4,B4,below the threshold

# Target: T10, APBA3_1, O96018
# Assay: holdup assay
# Parameters: key: below the threshold = too weak to quantify, mostly under pKd 3.1 to 4
# Details: plain residues with an end cap or a label only (N-terminal biotin on a linker: ado-ado)
row,Binder,pKd
1,B1,below the threshold
2,B2,below the threshold
3,B3,below the threshold
4,B4,below the threshold

# Target: LIMK2, P53671
# Sequence (P53671 143-248): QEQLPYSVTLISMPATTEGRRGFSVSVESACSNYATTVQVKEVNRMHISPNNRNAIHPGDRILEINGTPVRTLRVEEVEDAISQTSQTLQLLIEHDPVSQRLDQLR
# Assay: holdup assay
# Parameters: key: below the threshold = too weak to quantify, mostly under pKd 3.1 to 4
# Details: plain residues with an end cap or a label only (N-terminal biotin on a linker: ado-ado)
row,Binder,pKd
1,B1,below the threshold
2,B2,below the threshold
3,B3,below the threshold
4,B4,below the threshold

# Target: T11, SIPA1L2, Q9P2F8
# Assay: holdup assay
# Parameters: key: below the threshold = too weak to quantify, mostly under pKd 3.1 to 4
# Details: plain residues with an end cap or a label only (N-terminal biotin on a linker: ado-ado)
row,Binder,pKd
1,B1,below the threshold
2,B2,below the threshold
3,B3,below the threshold
4,B4,below the threshold

# Target: DLG2_2, Q15700
# Sequence (Q15700 189-283): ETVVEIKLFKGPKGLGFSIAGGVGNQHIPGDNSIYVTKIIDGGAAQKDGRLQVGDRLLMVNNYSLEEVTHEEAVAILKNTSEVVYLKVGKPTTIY
# Assay: holdup assay
# Parameters: key: below the threshold = too weak to quantify, mostly under pKd 3.1 to 4
# Details: plain residues with an end cap or a label only (N-terminal biotin on a linker: ado-ado)
row,Binder,pKd
1,B1,below the threshold
2,B2,below the threshold
3,B3,3.85
4,B4,below the threshold

# Target: T12, PARD3B_1, Q8TEW8
# Assay: holdup assay
# Parameters: key: below the threshold = too weak to quantify, mostly under pKd 3.1 to 4
# Details: plain residues with an end cap or a label only (N-terminal biotin on a linker: ado-ado)
row,Binder,pKd
1,B1,3.66
2,B2,below the threshold
3,B3,3.78
4,B4,below the threshold

# Target: TJP1_2, Q07157
# Sequence (Q07157 181-274): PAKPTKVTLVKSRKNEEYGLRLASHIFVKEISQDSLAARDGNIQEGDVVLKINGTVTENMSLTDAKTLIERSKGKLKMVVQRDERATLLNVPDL
# Assay: holdup assay
# Parameters: key: below the threshold = too weak to quantify, mostly under pKd 3.1 to 4
# Details: plain residues with an end cap or a label only (N-terminal biotin on a linker: ado-ado)
row,Binder,pKd
1,B1,below the threshold
2,B2,below the threshold
3,B3,below the threshold
4,B4,below the threshold

# Target: MAGI1_2, Q96QZ7
# Sequence (Q96QZ7 456-580): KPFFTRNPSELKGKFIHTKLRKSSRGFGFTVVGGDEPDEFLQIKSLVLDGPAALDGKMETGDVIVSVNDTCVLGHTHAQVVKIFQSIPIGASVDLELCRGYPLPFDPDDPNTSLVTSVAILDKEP
# Assay: holdup assay
# Parameters: key: below the threshold = too weak to quantify, mostly under pKd 3.1 to 4
# Details: plain residues with an end cap or a label only (N-terminal biotin on a linker: ado-ado)
row,Binder,pKd
1,B1,below the threshold
2,B2,below the threshold
3,B3,below the threshold
4,B4,below the threshold

# Target: ARHGEF12, Q9NZN5-2
# Sequence (Q9NZN5 other isoform, or with tags, fused parts or gaps): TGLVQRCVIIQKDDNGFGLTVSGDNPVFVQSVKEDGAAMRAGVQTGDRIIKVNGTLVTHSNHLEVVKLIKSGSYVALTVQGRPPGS
# Assay: holdup assay
# Parameters: key: below the threshold = too weak to quantify, mostly under pKd 3.1 to 4
# Details: plain residues with an end cap or a label only (N-terminal biotin on a linker: ado-ado)
row,Binder,pKd
1,B1,below the threshold
2,B2,4.65
3,B3,4.73
4,B4,3.54
